Measurements reported in US20200131227A1, “POLYPEPTIDE WITH TUMOUR BINDING ACTIVITY” (RUPRECHT-KARLS-UNIVERSITÄT HEIDELBERG, priority 2017, published 2020).
Where a SMILES comes first, the peptide text is derived from it. Bridges are numbered along the chain shown (N, C = ends). Where no end group is shown, it is not given here. The star is where a group is joined. DOTA = O=C(O)CN1CCN(CC(=O)O)CCN(CC(=O)*)CCN(CC(=O)O)CC1; 125I = iodine-125 label on tyrosine, [125I]*

Key:
[1] = PET/CT scan of HNSCC tumor patient with SFLAP3; assay type: in vivo, human; conditions: human, right cervical lesion, iv, 322 MBq, total radioactivity; read-out: SUVmax right cervical lesion
From the text: (§1) The emission data were corrected for randoms, scatter and decay. […] The quantitative assessment of tracer accumulation was done using a region of interest technique and using standardized uptake values (SUV).

[2] = system: HNSCC tumor; test: PET/CT scan of HNSCC tumor patient with SFLAP3; assay type: in vivo, human
From the text: as §1

[3] = system: metastasized pancreatic cancer; test: PET/CT and scintigraphy of pancreatic cancer patient; assay type: in vivo, human; conditions: 1 and 3 hours after injection
Description: PET/CT scans of tumor patients and body scintigraphy were performed as described in Example 1.

[4] = Small-animal PET imaging, HNO399 xenografts; design: species or system mice; conditions: Balb/c nude, mouse, in vivo, iv, total radioactivity; 60 min after injection; read-out: SUVmean in tumor
[5] = system: Capan-2 xenografts; test: Small-animal PET imaging, Capan-2 xenografts; assay type: in vivo, mice; conditions: 25 MBq
Description: 6 to 8 week old Balb c/c nude mice (Charles River Lab.) were inoculated with 5*10^6 Capan-2 cells in 100 μl Opti-MEM medium. After 4 to 6 weeks the tumor has grown 10-15 mm in diameter. For small animal PET imaging 25 MBq of the ^68Ga-labeled peptide (2 nmol) was injected into the tail vein.

[6] = Small-animal PET imaging, HNO97 xenografts; conditions: Balb/c nude, mouse, in vivo, iv, total radioactivity
Description: All experiments were conducted in compliance with the German animal protection laws. Eight week old Balb c/c nude mice (Charles River Laboratories) were inoculated subcutaneously at the right shoulder with 5×10^6 HNO97 cells in BD MatriGel™ (BD Bioscience). Xenografts were grown to a tumor diameter of 10-15 mm. For small animal-PET imaging mice were anesthetized using isoflurane inhalation and injected via tail-vein with 50 MBq (2 nmol) of the ^68Ga-labeled DOTA-SFITGv6 peptide (see above) solution in 100 μL PBS. Images were recorded on an Inveon small-animal PET scanner (Siemens) using a 60 min emission scan in list mode and a 10 min transmission scan. Images were taken in 3-dimensional (3D) mode and reconstructed iteratively with a fully 3D algorithm from a 256×256 matrix for viewing transaxial, coronal, and sagittal slices of 0.9 mm thickness. Pixel size was 0.38×0.38×0.79 mm3 and transaxial resolution obtained was 0.9 mm. For blocking experiments 100 μL of a 1 mM aqueous solution of SFITGv6 was pre-administered intraperitoneally 30 min before injection of the radiolabeled peptide. Biodistribution studies were performed after administration of 100 μL of a 20 nM ^177Lu-DOTA-SFITGv6 solution (1 MBq) as an intravenous bolus injection into the tail vein of the mice. After different time points (30 min to 6 hours) three animals, respectively, were sacrificed. Peripheral blood, heart, lung, spleen, liver, kidneys, muscle, brain, intestine, and injection site (tail, after intravenous injection only) were collected and weighted. Tissue-associated radioactivity was measured in a gamma counter (Berthold LB951G) and expressed as percentage of the injected dose per gram tissue (% ID/g).
All animal experiments were conducted in compliance with the German animal protection laws. For in vivo small animal PET imaging and organ distribution studies eight-week old Balb/c nude mice (Charles River Laboratories) were inoculated subcutaneously at the right shoulder with a total of 5×10^6 tumor cells in MatriGel (BD Bioscience). Xenografts were grown until a tumor diameter of 10-15 mm was reached.
3-dimensional (3D) PET images of whole mice were captured by the Siemens Inveon PET scanner as described in Example 1. To assess the biodistribution 100 μL of a 20 nM solution (1 MBq) of ^177Lu-DOTA-SFLAP3 and ^177Lu-DOTA-SFITGv6 were administered as an intravenous bolus injection into the tail vein of mice. For each time point (30 min to 6 hours) we sacrificed a total of three animals, and subsequently collected peripheral blood, heart, lung, spleen, liver, kidneys, muscle, brain, and intestine. Tissues were weighed and respective radioactivity was measured by a gamma counter (LB951G, Berthold Technologies). Values were expressed as percentage of the injected dose radioactivity (MBq) per gram tissue (% ID/g).

[7] = Small-animal PET imaging, HNO223 xenografts; design: species or system mice; conditions: Balb/c nude, mouse, in vivo, iv, total radioactivity; 60 min after injection; read-out: SUVmean in tumor
[8] = system: OV433 and OV429; test: In vitro binding on ovarian cancer cell lines; assay type: cell-based, human; conditions: highest binding among tested ovarian cell lines
Description: (§2) For in vitro binding Studies, 4*10^5-6*10^5 cells were seeded in 6 well plates and cultivated for 24 to 48 hours. At the start of the experiment the medium was replaced with 1 ml serum free medium with a definite amount of radioactive labeled peptide per well. For normal binding assays the cells were incubated for 60 min at 37° C. and afterwards washed 3 times with PBS (pH 7.4). Cells were lysed with 2 times 0.5 ml of a 0.3 M NaOH +0.2% SDS lysis-buffer. Competition assays were performed with ^125I-labeled and unlabelled (10^−6 to 10^−11M) peptide and incubated at the same time for 60 min.

[9] = system: Capan-2 cells; test: In vitro binding, internalization and efflux on Capan-2 cells; assay type: cell-based, human; conditions: 60 min
Description: as §2
Cells were incubated for 10 to 240 min with ^177Lu-labelled peptide in internalization assays. After the washing steps, the cells were incubated with 1 ml glycine-HCl (1 M, pH 2.2) buffer for 10 min to remove surface bound peptide. Prior to the lyses the cells were washed again. Values are given as percentage of applied dose per 10^6 cells.
The efflux was tested with ^177Lu-labeled peptides. After 60 min incubation the radioactive medium was removed and 1 ml fresh serum-free medium was added. After additional incubation of 60, 120 or 240 min, cell bound activity was measured.

[10] = system: HNO399 cells; test: In vitro binding on HNO399 cells; assay type: cell-based, human; conditions: 60 min; percent applied dose/10^6 cells
Description: For the assessment of the peptide binding capacity in vitro, 2.5-4×10^5 cells were seeded into 6-well plates and cultivated for 48 h. ^125I-labeled peptide resuspended in 1 mL serum-free medium was added and incubated for either 10 min or 60 min with or without different concentrations of unlabeled peptide (10^−4-10^−11 M). Afterwards, cell monolayers were washed three times with 1 mL phosphate-buffered saline (pH 7.4) to remove unbound peptide and the cells were harvested with 1.4 mL lysis buffer (0.3 M NaOH). […] For the efflux experiments the cells were incubated with ^177Lu-DOTA-labeled peptides for 60 min. Thereafter, radioactive medium was replaced by non-radioactive medium and cell monolayers were incubated for additional 60, 120, and 240 min and afterwards lysed as described earlier. […] Unspecifically bound peptide was removed from the surface by incubation with 1 M glycine-HCl solution (pH 2.2) for 10 min. The monolayer cell was rinsed with PBS and cells were lysed as described before. Radioactivity was determined in a y-counter and calculated as percentage of the applied dose per 1×10^6 cells. Experiments were performed three times, and three repetitions per independent experiment were acquired.

[11] = system: carcinoma cell lines; test: In vitro binding of radiolabeled peptides to several carcinoma cell lines; assay type: cell-based, human; conditions: 10^−6 M competitor; all tested HNSCC cell lines
Description: For binding studies, 2.5×10^5 to 4×10^5 cells were seeded in 6-well plates and cultivated for 48 hours. Cells were incubated for 60 min with 1 mL serum-free medium containing the ^125I-labeled peptide (see above). For competition experiments, cells were simultaneously exposed to unlabeled (10^-4 M to 10^-10 M) and ^125I-labeled peptides. After three washing steps with PBS (pH 7.4) the cells were lysed with 0.5 mL of 0.3 M NaOH. Experiments concerning the internalization, kinetics and efflux were additionally performed with ^177Lu-DOTA-SFITGv6. To evaluate kinetics and efflux HNO97 cells were incubated for different time intervals (10 min to 480 min) and 60 min, respectively, with ^177Lu-DOTA-SFITGv6 and lysed as described. To continue with the efflux experiment radioactive medium was replaced by non-radioactive medium and cells were incubated again for 60 to 240 min before measuring radioactivity of the cell lysates and the medium. For internalization experiments the cells were exposed to ^177Lu-DOTA-SFITGv6 for different time intervals (10 to 240 min) at 37° C. and 4° C. After three washing steps with PBS the cells were incubated with 1 mL of glycine-HCl 50 mmol/L in PBS (pH 2.8) for 10 min at RT to remove the surface bound activity. Then, cells were washed with 3 mL of ice-cold PBS and lysed as described. Radioactivity was determined in a gamma counter and calculated as percentage of the applied dose per 1×10^6 cells. Experiments were performed three times, and three repetitions per independent experiment were acquired.
For the assessment of the peptide binding capacity in vitro, 2.5-4×10^5 cells were seeded into 6-well plates and cultivated for 48 h. ^125I-labeled peptide resuspended in 1 mL serum-free medium was added and incubated for either 10 min or 60 min with or without different concentrations of unlabeled peptide (10^−4-10^−11 M). Afterwards, cell monolayers were washed three times with 1 mL phosphate-buffered saline (pH 7.4) to remove unbound peptide and the cells were harvested with 1.4 mL lysis buffer (0.3 M NaOH). To evaluate kinetic properties the cells were exposed to ^177Lu-DOTA-labeled peptides for 10, 30, 60, 120, and 240 min, respectively, and lysed as described. For the efflux experiments the cells were incubated with ^177Lu-DOTA-labeled peptides for 60 min. Thereafter, radioactive medium was replaced by non-radioactive medium and cell monolayers were incubated for additional 60, 120, and 240 min and afterwards lysed as described earlier. The internalization was assessed after exposure of the cells to ^177Lu-DOTA-labeled peptides for 10, 30, 60, 120, and 240 min at 37° C. Unspecifically bound peptide was removed from the surface by incubation with 1 M glycine-HCl solution (pH 2.2) for 10 min. The monolayer cell was rinsed with PBS and cells were lysed as described before. Radioactivity was determined in a y-counter and calculated as percentage of the applied dose per 1×10^6 cells. Experiments were performed three times, and three repetitions per independent experiment were acquired.

In the case of `CC(C)C[C@@H]1NC(=O)[C@H](CC(=O)O)NC(=O)CNC(=O)[C@H](CCCNC(=N)N)NC(=O)CNC(=O)[C@H]([C@@H](C)O)NC(=O)[C@@H](NC(=O)[C@H](CCCNC(=N)N)NC(=O)CNC(=O)CN2CCN(CC(=O)O)CCN(CC(=O)O)CCN(CC(=O)O)CC2)CSSC[C@@H](C(=O)N[C@@H](Cc2ccc(O)cc2)C(=O)N2CCC[C@H]2C(=O)N[C@@H](CC(=O)O)C(N)=O)NC(=O)[C@H](CC(C)C)NC(=O)[C@H](CCCNC(=N)N)NC(=O)CNC1=O` [^68Ga-DOTA-SFLAP3, metal not drawn] ({DOTA}-GRCTGRGDLGRLCYPD-NH2; disulfide 3-13; N-terminus and C-terminus assumed), the SUV [1] is reported as 4.1 SUV, the “SUVmax Bight kidney” value ([2]; 60 min) is reported as 22.43 and the “SUVmax Blood pool (mediast.)” value ([2]; 60 min) is reported as 0.99. The “SUVmax Cerebral parietal” value ([2]; 60 min) was 0.05, the “SUVmax Colon ascendens” value ([2]; 60 min) was 9.2 and the “SUVmax Colon descendens” value ([2]; 60 min) was 3.75. For the same compound, the “SUVmax Duodenum” value ([2]; 60 min) was 6.31, the “SUVmax Hilar lymph nodes” value ([2]; 60 min) was 4.07 and the “SUVmax Ileum” value ([2]; 60 min) was 4.07. The “SUVmax Jejunum” value ([2]; 60 min) was 10.46, the “SUVmax Kidney (left)” value ([2]; 60 min) was 60.52 and the “SUVmax Liver (left)” value ([2]; 60 min) was 0.67. For the same compound, the “SUVmax Liver (right)” value ([2]; 60 min) was 0.73, the “SUVmax Lung (left)” value ([2]; 60 min) was 0.36 and the “SUVmax Lung (right)” value ([2]; 60 min) was 0.33. The “SUVmax Muscle (glut.)” value ([2]; 60 min) was 1.94, the “SUVmax Os ileum” value ([2]; 60 min) was 0.53 and the “SUVmax Pancreas head” value ([2]; 60 min) was 2.3. The “SUVmax Plexus choroideus” value ([2]; 60 min) was 1.06, the “SUVmax Spleen” value ([2]; 60 min) was 0.54 and the “SUVmax Stomach” value ([2]; 60 min) was 12.65. The “SUVmax Thyroid” value ([2]; 60 min) was 3.27, the “SUVmax Tumor” value ([2]; 60 min, listed as 68Ga-DOTA labeled SFLAP3) was 5.07 and the “SUVmax Tumor” value ([2]; 60 min, listed as 68Ga-DOTA-labled SFLAP3) was 5.1. The “SUVmax Bight kidney” value ([2]; 180 min) was 26.41, the “SUVmax Blood pool (mediast.)” value ([2]; 180 min) was 1.05 and the “SUVmax Cerebral parietal” value ([2]; 180 min) was 0.27. For the same compound, the “SUVmax Colon ascendens” value ([2]; 180 min) was 19.37, the “SUVmax Colon descendens” value ([2]; 180 min) was 2.97 and the “SUVmax Duodenum” value ([2]; 180 min) was 8.91. The “SUVmax Hilar lymph nodes” value ([2]; 180 min) was 4.15, the “SUVmax Ileum” value ([2]; 180 min) was 17.65 and the “SUVmax Jejunum” value ([2]; 180 min) was 9.2. The “SUVmax Kidney (left)” value ([2]; 180 min) was 36.85, the “SUVmax Liver (left)” value ([2]; 180 min) was 0.76 and the “SUVmax Liver (right)” value ([2]; 180 min) was 0.75. The “SUVmax Lung (left)” value ([2]; 180 min) was 0.46, the “SUVmax Lung (right)” value ([2]; 180 min) was 0.33 and the “SUVmax Muscle (glut.)” value ([2]; 180 min) was 1.92. The “SUVmax Os ileum” value ([2]; 180 min) was 0.47, the “SUVmax Pancreas head” value ([2]; 180 min) was 2.62 and the “SUVmax Plexus choroideus” value ([2]; 180 min) was 1.57. For the same compound, the “SUVmax Spleen” value ([2]; 180 min) was 0.8, the “SUVmax Thyroid” value ([2]; 180 min) was 3.24 and the “SUVmax Tumor” value ([2]; 180 min) was 4.64. The “PET/CT accumulation in tumor lesions” value [3] was “high accumulation over 3 hours into the tumor lesions”, the SUV at 1 h [4] was 0.44 SUV and the “time p.i. at which tracer accumulation was seen in the tumor” value [5] was 20 min. It also gave an SUV at 1 h [6] of 0.63 SUV and an SUV at 1 h [7] of 0.32 SUV.

In the case of “^125I-SFLAP3: ^125I-labeled SFLAP3 (GRCTGRGDLGRLCY(125I)PD; disulfide 3-13)”, the “binding of ^125I-SFLAP3” value [8] is reported as 5%, the “^125I-SFLAP3 binding value” [9] is reported as 14% and the “binding of ^125I-labeled peptide” value [10] is reported as 10.1%. For the same compound, the “competition of binding by non-radioactively labeled counterpart” value [11] was “almost completely competed”.
